The DeepSol protein solubility set

Test: soluble on expression in E. coli; label from the status in PepcDB or PDB records

Row | Sequence | soluble on expression in E. coli
1 | MSLNFVAMDFETANQHPASACSLALVLVRESKIIDRFYTVINPQMAFDAQQVKVHDITAEDVAGAPTMAEVWPKIQPLFQPGMLVAAHNARFDCNVMKQSLARYGIAEPHYLVLDSLKVSRELEPGLDNYQLNTVSDLLGVELWHHHNALSDSEACAGILLKEEEKRGSELLKKFVYQVEGHHHHHH | not soluble
2 | MGLEVAADSVGSALAAQDGGAIRVELCGGLDGGGLTPSFGTLAVVRERLQIPLYVLIRPRVGDFVFDAAEVEVMRRDVEQCVRLGCDGVVLGALDPQGQVDLPAMRALIEAAGTLGVTFHRAIDVSADPARVLEDAITLGCERVLTSGARASALEGVETIAALVRQAGERISIMPGAGVSAANVQALRAGTGAREFHASARGPVAAQVHAPHPYITDLGGDYQRTDVARVRSIVQLLQTALEHHHHHH | not soluble
3 | MFQASMRSPNMEPFKQQKVEDFYDIGEELGSGQFAIVKKCREKSTGLEYAAKFIKKRQSRASRRGVSREEIEREVSILRQVLHHNVITLHDVYENRTDVVLILELVSGGELFDFLAQKESLSEEEATSFIKQILDGVNYLHTKKIAHFDLKPENIMLLDKNIPIPHIKLIDFGLAHEIEDGVEFKNIFGTPEFVAPEIVNYEPLGLEADMWSIGVITYILLSGASPFLGDTKQETLANITAVSYDFDEEFFSQTSELAKDFIRKLLVKETRKRLTIQEALRHPWITPVDNQQAMVRRESVVNLENFRKQYVRRRWKLSFSIVSLCNHLTRSLMKKVHLRPDEDLRNCESDTEEDIARRKALHPRRRSSTS | soluble
4 | VAVTCRVLKLARQPYYRWRAHPVTDAEIVEAYRANALFDAHKDDPEFGYRYLVEEARDAGEPMAERTAWRICSQQGLWSVFGKKRGKNGKPGPPVHDDLVERDFTASEPNALWLSDITEHRTGEGKLYLCAIKDVFSNRIVGYSIDSRMKSRLATAALSSAVARRGDVDGCILHSDRGSQFRSRKFVHALHHHGMVGSMGRVGAAGDNAAMESFFSLLQKNVLDRRRWDTREQLRIAIVIWIERTYHRRRRQLTLGRLTPIEFEAIMTTPASQAA | soluble
5 | GPGSMISLDAYVRYVYQYSSPTTTEHLRQTVWGPLGLCSGASASPKPISGAQPCWRDASVSHEVLYAVPPITTNVRCVGSRIDAHLTDLLEALPLSSPTVPPTTPAAATLASRFARPSRLATIGLPFCLCVKPQTEHLTPWSLLCTSSSSPTDASNPEMNRKQPSRPLVLVVDTGAAEAVLRGSDLYAPGIVTASRPFHAGERAVVAFYVERVAGTGDEAQNGSAEAPCRLVCALPTGATLSAEQFEPLDMDVDYQDKHQQVDMLAGRSTFLVCIGSGVTCMEWKTVMSRSVHGTALRMEWTPQGQPSRATLRALLGITKGTEDSNARSSTPLPQPPSSGVEEGEERAADVFFLQNYSSMVPVALLVQHLSPAALRRAWTHSDDADQGRSPVPCTILDACAAPGGKTSLLLSLLQERAEQERTAMAEAAIPLPSATVATEPFRVVCCERSRPRQEQLMSLLHRHFASHLAAPSASPSLNSTPAVDVPYVTRVLESRCVDTNKFLKRKLTEAAGSSDGSAASHTASFDAVLLDPPCTGMGLRPKLMPHVQSIASIQRSADYQRKLFDSCIRHIRGSPTSPGVIVYSTCTTTLEENEANVLHFLCTYPSVRLARARTAAQRALCGLSTVRSYGAQHDTDGSHGSTCLCSCLLRNEITEVQLAKERAAAAEGLSSTDPLLLLRFMPRPLDIYDDISEDGVGFFVAVFLCSGYTDA | not soluble
6 | MSLGQKFAVFIAYDDEPNTKRYSAEFQTQDEYVKGWQSALKKAHHTSGQKSVISCGCRGKGAKRLYVRSLPNSDTFILIKAANTGTEHDPSCVFFDLDARHTGLKGYASNVVRINNEGTMSIRLGIGMTEKDPPEKSEVPSLPQIQRPEGGQASMTLSGLLSLLWTEAGLNVWYPNMAGKRNDSLVRYRMLEAAKQIRSGRACIGDHLFIGVADSKSKVASEQVQLLSSAELSDKRLLLLSVLPRYDAEKHEKPLKFLPMRNFGGMPLTFFNSDGHWDSVKRRFPLEYAAWKNGGKVVVFALTSPVSVTSRGISARAHQIVLMLVSDNWIPLDSSYEAIVSRKLDAEHRHYVKPMRYDASASDVFPDFYLLDTRSDKPFPMEVFGMSTPAYLARKELKKAYYNQEYGAYGWWHWDATEKTEYQELPHFPEARREGHHHHHH | soluble
7 | MAHHHHHHMTKTNGQNAARKLVRLRCRNRWADKGWKRAHTFSARKANPFGGSSHAKGIVLEKIGVGAKQPNSAIRKCVRVQLIKNDKKIIAFVPNDGCLHFIEENDEVLVSGFGRSGHAVGDIPGVRFKIVKVSNVGLYALYRQKKEKPRN | not soluble
8 | MAGDPMKIMIFICGEGLGHTSRCLALGKELLAAGHEIEFGAYGYSRDLVEKTGYRIHEIPSEIKLVGKAGGFDLSGSIEATLKNARILGGPKVLKLIKDFKPDVVVSDSYYLGTLAAMLLNIPVYLIINQSNMEDFFKNRGVPIRLLGDLTKKFYREVFEKTDKIIIPDYPLPYTVCRKNLNFSPGLWEKLEHHHHHH | not soluble
9 | MRVYGRKILEEALRNNVPIKKVFFQKMKNPGSYFLSLVKEVEKRGIKYSFESEERLKNLSGTKKHQGVVFDIGEYRYSSVEEILEAKTPPLIVLLDQIQDPHNLGAIVRTSVGAGANGIIIPKDKSVKVTETVVKVSAGTVFRARIAVVTNLARTIEELKEKGVWTYASDIDGTPIYEEDFTFPTAFVFGNEGEGIRRLVREKCDRVVTIPMENDIDSLNVSVSVGVVLFEAVRQRRMKGAG | soluble
10 | MAHHHHHHMNKSTVAGELRNIFSQGTNAYTVELYNAFYRDGTLSLVMEYMDWGNLEELIAICPTIPEPACAYIASQILHALQILHTKANHPTETDKKGRRQIHRDIKPANVMLSKNGVVKLTDFGIAASAETIGVNSFVGTATYMSPERIQGRNYSTPSDIWSVGVLTAQLLLGRFPFSAAEGGFMALLRQVTECCSLSLVDQCACSQKAEDFINHCICRNPDDRSTAIELLQHEWIVQNASNGKDVLTGLLGTVGEPAASSESDNS | not soluble
11 | MGSDKIHHHHHHMTVNDYALVTGASGFLGSAVVRQALARGWRVRALVRATSPRANLDGLPVEVFEGDMRDPAALTSAMRGVRYLFHVAADYRLWAPDPEEIVRTNVDGTMAVMEAAQEAGVERVVYTSSVATLRVAGASAPVDETAAMTPHEAIGAYKRSKVLAERVVERMVAERGLPAVIVNPSTPIGPRDVRPTPTGRIIVEAATGKIPAFVETGLNLVHVDDVAAGHFQALERGRIGERYILGGDDVMLQQMLRDIADLCGRRPPTVQLPRWPLYPLAHAAEAVARITRKEPFVTVDGLHMSKYRMFFRSDKARQELGYQPRPYIDGLRDALDWFREAGYLR | not soluble
12 | MSTETDSILAAFEKFNTIIIHRHINPDPDAIGSQTGLALLLRAAYPAKTIYTAGPAAPDLAWIGPQQQVSAEAYTGALVVVIDTSNRERIAGDHFDQGAMLIKIDHHLDEDQLGTINWVDTHASSASEMVWDLVRHSPQLQLTKAAATALYAGIIGDTGRFLYDLTTARTHQAAADLLATGIDAAAIGRQEDQFPENVGRLIGWALENVKITDTGAGSLLITKAVLAQFGLAYGEEQRAVGNIGKLASIDRWVVFTERTDGSYRVELRGKTKEINTLAVQHGGGGHPLASGAVADNAAELHAIEEELASLLEHHHHHH | soluble
13 | MIDINLIREKPDYVKERLATRDKELVSLVDKVLELDKRRREIIKRLEALRSERNKLSKEIGKLKREGKDTTEIQNRVKELKEEIDRLEEELRKVEEELKNTLLWIPNLPHPSVPVGEDEKDNVEVRRWGEPRKFDFEPKPHWEIGERLGILDFKRGAKLSGSRFTVIAGWGARLERALINFMLDLHTKKGYKEICPPHLVKPEILIGTGQLPKFEEDLYKCERDNLYLIPTAEVPLTNLYREEILKEENLPIYLTAYTPCYRREAGAYGKDIRGIIRQHQFDKVELVKIVHPDTSYDELEKLVKDAEEVLQLLGLPYRVVELCTGDLGFSAAKTYDIEVWFPSQNKYREISSCSNCEDFQARRMNTRFKDSKTGKNRFVHTLNGSGLAVGRTLAAILENYQQEDGSVVVPEVLRDYVGTDVIRPE | soluble
14 | MMPLNRQSTTPLYIQLYQQMRDDYDATQANHQLWSIRKMAQNLGVSKTTVEQAYDQLLAEGYVYTVPGSGYFYRDRTHWPAAKQALETVPQPTKPRAFTYDFRYGVTQLLSPSWNAWKRAVRLALRQTEQQPTAVYPDAQGLPALRENLVRFLKTTRGVRCTADQIVITSGAKAGLSILLSILPRGTVGIENPGYRGLSELAASYGQTAVPIRVTEDGLDLTQVRARNPQIIYTTPGHQFPLGVVLPIEKRLALLQWAGTQHLIIEDDYDSEYRYSAHPLPALQSLATANQVAYLGTFSRGIDPTLRMGYLVLPPQLVATYHQRYQYRAEMVAGLLQQAMANYFEDGAYYRHLSRNRAANRQKYRVLCHQLAQTKQIRPIATGAGVHLVVQIPGIAQAKLLEALEQQQVRIYPLSSNWRDMPTTDYYLLGFAGLTLSELTTGVKRLVQVCEQLVR | not soluble
15 | AERGELDLTGAKQNTGVWLVKVPKYLSQQWAKASGRGEVGKLRIAKTQGRTEVSFTLNEDLANIHDIGGKPASVSAPREHPFVLQSVGGQTLTVFTESSSDKLSLEGIVVQRAECRPA | soluble
16 | MGSDKIHHHHHHDWLDLNTTSSVETGQAIVTLDDAQIALNGIYRLASGHSYYGDNYWYYGDCRAADVQARITKGDGKRVSPYYEYNVLASDNLNIVLPWNTVYKVIRQTNNLIQKIESGSIQSSDTKELNRIKSEALVMRGLSLFNLTRLFGMPYTNDKGASLGVPIETSPSDPTHKPSRSTVAQCYEQVVSDMSNALSGLRQETSNGYINYWAAQALLSRVYLNMGEYQKAYDAATDVIKNNGGRYQLYSYEEYPNVWGQDFQSESLFELYITLSEPSGGTGGEGAPMVYANEATVDWNNLILSEDFLNLLNEDPKDVRHCLTKESVIENNTGLPAAAMHEKVYLAKFPGKTGDDPKTNNICIIRLSEVYLNAAEAGLKKGTDIEEAQGYLNDIISRRTTDTSQQVSTETFTLDRILKERRKELVGEGEVFYDYLRNGLAIERKGSWHLETLKASNAQKIEATDLRIALPIPQSEIDANPNIQQNPR | not soluble
17 | MSPANRVVQPYSKEDLAIQVSQLSGSRAAIWKALDSIDSWSYRVFDVQAAMSGDDYLSLSTQTHGGSLLITMYALLCMHDFLQKFKIDEQIALNWISAVEASYHGNPYHNSMHAADVLQITDFIITQGGLAKRCDLSDIQVFSALLAASIHDFDHPGINNNFHIKTGSYLATLYNDRSVLENLHVSSVFELMKNPAFNILASFSDEQHHEVRETMIEMVLATDMGSHGKYVASLKGKMQEHSSFTQTAEQNLCLAIALKMADISNCGRPLDIYLRWGAKVSDEFYQQGDRERNLGLECSPFMDRLQPSLAKSQIAFMNYIITPFFEQVAELLPDMRFAVALVEENKAYWANHDDS | not soluble
18 | MSDLFIHPELRFHSYGTWLRRRFGCNVSKVNVDGGFTCPNRDGSRGTGGCIYCDNASFSPGGTVPDKSIELQMAEGMAYHRQRLGSEKFIIYFQKFTNTYAPAARLRDLYTRALSHPDVVGISVGTRPDALADEALELLADLAQEHYVCIELGLQSMDDAILERINRGHTLDEYLRTVDRIAGRGIALCTHLIYGFPGETREGFLKTAHLLAGLPVDSVKLHQLHAVKGTRLAELYHRREFVPITLAEYVTTACDFLELLPPRI | not soluble
19 | MGSDKIHHHHHHMKINMPENVQTILNKLHSNGYQAYIYGACIRDYLLGKEPINWDITTNALPNNTVVIFDENEGFTSIPSVEDYGIVTLHFKGESCQVNTFRTGEARRFADDISEDLLHKDFTMNSIAYNEQAGIVDPYNGVGDIEKRLIRCAQNPYEQMQEDSARILRAVRFESQLGFKIEAELLQAMKDLKDTVPASGSRVRNEFIQLLLSEQPSRSIRRLLELGLLERLIPELMPAIGFDTHSSYHDKDVFEHSLVVLDNTEPNLTLRLAALLHDIDKPNCLTIDEDGEGHCYGHASGGSEMAQAILGRLNFDRKTIQAVSSLIKEHMNDFGNISDLSIKRLIRRVGPDNIDRLFELQLADIKGSALSSRDPERITKIRNKCFEVLSRREPLTVHDLDISGYDLLSLGYPPGKKIGETMDYLLDQVIDNPSLNQRDTLIALLKNRK | not soluble
